# Data published in the RNAGym collection of RNA variant scans (doi:10.1073/pnas.2313332121).
# Fewer inactive variants are shown than the library holds.
# B1: TPR 5TU (parent)
# chain: GGAUCUUCUCGAUCUAACAAAAAAGACAAAUCUGCCACAAAGCUUGAGAGCAUCUUCGGAUGCAGAGGCGGCAGCCUUCGGUGGCGCGAUAGCGCCAACGUUCUCAACUAUGACACGCAAAACGCGUGCUCCGUUGAAUGGAGUUUAUCAUG
# Variants of: B1
# Experiment: polymerase ribozyme fitness, log enrichment relative to wild type (log ratio); higher = more active; in vitro selection for triplet polymerase activity
# In short: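 Libraries of mutants in each subunit of a heterodimeric triplet polymerase ribozyme were generated by PCR and transcribed. In triplicate, each went through one in vitro selection round: annealing with biotinylated primer, partner subunit and triplets; frozen incubation at −7 °C; gel excision of extended constructs; streptavidin-bead capture; RT-PCR. Fitness, taken from Illumina sequencing of input and output libraries, is the logarithm of a genotype's enrichment over wild-type enrichment, averaged across replicates with inverse-variance weights. The logarithm is base 2, and genotypes needed ≥10 input reads and ≥1 read per output to be kept.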
row,Variant,polymerase ribozyme fitness (log ratio)
1,U13G A122C A142C,-2.05
2,C14A G58A G68A U78A G94A,≤ -4.2
3,C14A A26U G46A C85U C105A A113G C114A G128A A147G,≤ -4.2
4,U13G A52G,-1.06
5,C14A A40C G92C G143A,≤ -4.2
6,C14A A39U A49C C57A C79G G86U,≤ -4.2
7,C14A A66U G68A C72G G92U,≤ -4.2
8,U13G C35U C72U C96G C105U G133C,≤ -4.2
9,C14A G86C,-3.85
10,C14A A19G G68A C99A C123U,≤ -4.2
11,U13G G83C C99G C118G C123U A137G,≤ -4.2
12,C14A G62C C76A C87A G117U A137C U146G,≤ -4.2
13,U13G G141C,-1.88
14,C14A A41U C76G C87A G92C U144G,≤ -4.2
15,U13G C36A C85U A115U U139C,≤ -4.2
16,C14A C75U,-1.84
17,U13G C14G U31G,-1.43
18,U13G U56A G71A U135C,≤ -4.2
19,C14A C38A G42C U56G G67C G84A C108U U127C,≤ -4.2
20,C14G A19U G59C G81U C95U G141A,-3.74
21,C14A A19U U56G G86U C116G C125U G133A G143C,≤ -4.2
22,U13G C14G U31A A41C G86A U90G G100A C131A,≤ -4.2
23,C14A C54U G83U C95U U111G U134G,≤ -4.2
24,C14A A17G A22U A24C A41C G70A U78A U90C C129U,≤ -4.2

row,Variant,polymerase ribozyme fitness (log ratio)
1,U13G C54G,-3.62
2,U13G C103A,-2.97
3,C14A C93U,-2.33
4,C14A A52G C85U A113C,-4.15
5,U13G G68C G84A,≤ -4.2
6,U13G G42A G50U C76A G86C C132A,≤ -4.2
7,C14A U55A,-1.9
8,C14A A23G A26U C43U C54U C57A C96G G143A,≤ -4.2
9,C14G A20U G50A U56A G65U C93A C131A,≤ -4.2
10,U13G G83U C105U G117C U148A,≤ -4.2
11,C14A A17C A41C C96U A115U G141A,≤ -4.2
12,C14A G83A C93G A107G,≤ -4.2
13,C14G A20G A24U C72G U82G A97G U101C C103G G136A,≤ -4.2
14,U13G U53A A66C G83U C149A,≤ -4.2
15,C14G A17G C32U G81A G83C,≤ -4.2
16,U13G C35A A52C,≤ -4.2
17,C14A G80A C85U C103G G117U G124U A142G,≤ -4.2
18,C14A A60G C85G C118G C132U,-3.89
19,C14G A20U C76A,-3.92
20,C14A A16U G83A C93G C95U A98U C108G,≤ -4.2
21,C14A U101G,-1.35
22,C14A A17U A40U C57G G84U C96A A121C,≤ -4.2
23,C14A A20G C38A A39G C54U A91C A106U G124C,≤ -4.2
24,C14A C95U,-1.38

row,Variant,polymerase ribozyme fitness (log ratio)
1,C14A G84A,-1.24
2,C14A A52G U55G C99U,-3.48
3,U13G U55A G94A G100A G140U,-4.11
4,U13G G81U G86A C105U,-3.74
5,C14A G62U,-1.57
6,C14A C76A A89C U90G C95U A107U,≤ -4.2
7,C14A C38G G81U G94U,-3.15
8,U13G G80C G94U U134A,≤ -4.2
9,C14A C35U C57U G59C U134A,-4.18
10,C14A A17U A24C C57U G58C C87A,≤ -4.2
11,C14G A19U C87G U145A,≤ -4.2
12,C14A C36U U45C C87U C105A G133U,≤ -4.2
13,C14A A16C G46A G67C C85A C95A,≤ -4.2
14,U13G C38A C93G C116G A122G,≤ -4.2
15,C14A U44A G81A C85A U102G,≤ -4.2
16,U13G G92C,-2.36
17,C14A A24U U90A,≤ -4.2
18,C14A A16U A19U A52G G68A C85G U151G,≤ -4.2
19,C14A A49G C54U G71A U77C G86U G143A,≤ -4.2
20,C14A G50A C85U G126C,-4.17
21,C14A A20C C27G,≤ -4.2
22,C14A A39C G70A U130G,≤ -4.2
23,U13G C85A,-2.23
24,U13G C85U,-1.63

row,Variant,polymerase ribozyme fitness (log ratio)
1,C14A G62A C85A G141A,-3.57
2,C14A G62U G94A,-2.9
3,C14A A16G,-0.651
4,U13G G136A A137G C149U,-3.07
5,C14A C63U G71A C85G G100U,≤ -4.2
6,U13G A47G U55A C87U C96U U139G,≤ -4.2
7,C14A A150G,-2.78
8,C14A A29U C96A U101G G133C U144C,≤ -4.2
9,C14A A19C C93U C125A,-3.52
10,U13G C85U C96U G100A A115C,≤ -4.2
11,U13G G58C G62U U82A G86U U127C U146G,≤ -4.2
12,C14A C99G,-1.66
13,U13G G136A U144C,-2.04
14,C14A A23C A66U C93A G128U U151A,≤ -4.2
15,C14A A37U C75G G94A A113G C114G C149A,≤ -4.2
16,C14A U15C A19C A20C U45C G86U,-4.11
17,C14A C85A,-2.69
18,U13G A106G,-1.5
19,C14A C35U G58A G86A C96U,-3.96
20,C14A C18U A22U A26U U82C C95U U145G U148C C149U,≤ -4.2
21,C14A C38A C93G,≤ -4.2
22,C14A U53A C96A A98C A120U G141A,-3.99
23,C14A A17G G74U C85U C99G U101A U148A,≤ -4.2
24,C14G A17G C27U C96G A122G G141C,≤ -4.2

row,Variant,polymerase ribozyme fitness (log ratio)
1,U13G G84A G143U,-3.44
2,C14G A19U G34U C87G G100A A142C,≤ -4.2
3,U13G A49U,-2.21
4,C14A C54A,-3.55
5,C14A C54U,-2.07
6,C14A A39U A73G C95G,≤ -4.2
7,C14A U82G C96G,-2.31
8,U13G G94C C114G G143A,≤ -4.2
9,U13G C14G C57A G71A U101G G124A G141A,≤ -4.2
10,C14A A19G G48U A66C A73G G84U U135A U151G,≤ -4.2
11,C14A A41C C76U G84U,-2.89
12,U13G C96A,-0.681
13,C14A U31A U55A G92A C125U A142U,≤ -4.2
14,C14A A20C C96U,-1.32
15,U13G U56A G86U C131U,-4.16
16,C14A G59C U78G C96U,≤ -4.2
17,C14A C35G G59C A64C A73G G141U,≤ -4.2
18,C14A A21U G59U G133C,-3.06
19,C14A A23C U56A C75G U77A C93U C95G U102C,≤ -4.2
20,U13G C18G U45A G59U U104G U134C G140U U144A,≤ -4.2
21,C14A U102G,≤ -4.2
22,C14A A16G A20G U56A U82G A106G,-3.04
23,U13G G48C G81A C96A,≤ -4.2
24,C14A U135A A142C,-3.9

row,Variant,polymerase ribozyme fitness (log ratio)
1,C14A A28U G46C U61A C95U U139C A150C,≤ -4.2
2,C14A A16C A19U U82A G83U C149U,-3.89
3,C14A G25A U53G G84C C87U G117C G124A,≤ -4.2
4,C14A A19G A26U C79A G83U A119C,≤ -4.2
5,U13G C75A C108G G143A,≤ -4.2
6,C14A A17C C36A U44A U45A C54A C85G G88U C103G A110C,≤ -4.2
7,U13G G65C G83A,≤ -4.2
8,U13G C87U,-1.62
9,U13G C51G A91C,≤ -4.2
10,C14G A19C C75U U82C C93U A97U C105G,≤ -4.2
11,U13G U31C C96A,-0.864
12,C14A A29C C96G A150U,≤ -4.2
13,U13G C57A,-0.243
14,C14A C27G C32G U77C G84A,≤ -4.2
15,C14A A64U C93U G141A,≤ -4.2
16,U13G U90G,-4.04
17,U13G C96U A97U A137U,≤ -4.2
18,C14A A16U A49G G50A C57A A60G C95G U101C A110G,≤ -4.2
19,C14G A17U A37U A52G C57U A91U U127A U134A A150U,≤ -4.2
20,C14A A49C C85A U90G G94U A107G G141U,≤ -4.2
21,U13G U56A C76G A91U C93U,≤ -4.2
22,C14A A28U G68U G92C C125U A137C A150C,≤ -4.2
23,C14A A16C A28G A60G C79G A91G U109A,≤ -4.2
24,C14A G83A,-0.809

row,Variant,polymerase ribozyme fitness (log ratio)
1,C14A G80C G86U C118U,≤ -4.2
2,C14A G58A A89U G94U,-3.75
3,U13G U61A A89U C96U,-3.58
4,U13G C35A G50A C54A C76G C87G A89U A107C G141C,≤ -4.2
5,C14A U90G A137C,≤ -4.2
6,C14G A19G G46A C72G G84U,≤ -4.2
7,C14A U44G,-4.1
8,U13G G58A C95U C96G,-4.19
9,U13G C85U C99U G128C C132U,≤ -4.2
10,C14A A37U A52G G83A G84A A115U,≤ -4.2
11,C14G A20G C75A C96G G141C,≤ -4.2
12,C14A G59A G84A A106G C125G U148C C149U,≤ -4.2
13,U13G G46C C54U G92U,-3.24
14,U13G C36U A47U G84A A122G A138U,≤ -4.2
15,U13G U56A,-0.285
16,C14G A16G A22C A60U C87U C93U A121C,≤ -4.2
17,C14A C125A,-1.75
18,C14A C27G A91C A115G,≤ -4.2
19,U13G U77G U145G U151G,≤ -4.2
20,C14G A19C,-1.66
21,C14A A26U A29G C57G C93A G141C,≤ -4.2
22,U13G C38U C63U C76U A91G C93G C95U C149U,≤ -4.2
23,C14A C38U,-1.31
